Data: patent publication US7608586B2, “Soluble low-density lipoprotein receptor related protein binds directly to Alzheimer's amyloid-beta peptide” (The University of Rochester, priority 2003, dated 2009)
“Also recorded” adds a separate entry of the source.

Experiments:
[1] = molecular target: T1, LRP-1 on isolated brain capillaries (Mus musculus, UniProt Q91ZX7); experiment: Brain capillary uptake (in vitro clearance of 125I-Aβ by isolated brain capillaries); format: cell-based; settings: for lower affinity (Ki) for LRP-mediated clearance on brain capillaries than Aβ1-40: 125I-Aβ1-40 as test-ligand, unlabeled peptide 40 nM
T1 construct: from tissue; host or cells: isolated brain capillaries of wild-type and RAP null mice
T1 sequence (Q91ZX7 20-4545): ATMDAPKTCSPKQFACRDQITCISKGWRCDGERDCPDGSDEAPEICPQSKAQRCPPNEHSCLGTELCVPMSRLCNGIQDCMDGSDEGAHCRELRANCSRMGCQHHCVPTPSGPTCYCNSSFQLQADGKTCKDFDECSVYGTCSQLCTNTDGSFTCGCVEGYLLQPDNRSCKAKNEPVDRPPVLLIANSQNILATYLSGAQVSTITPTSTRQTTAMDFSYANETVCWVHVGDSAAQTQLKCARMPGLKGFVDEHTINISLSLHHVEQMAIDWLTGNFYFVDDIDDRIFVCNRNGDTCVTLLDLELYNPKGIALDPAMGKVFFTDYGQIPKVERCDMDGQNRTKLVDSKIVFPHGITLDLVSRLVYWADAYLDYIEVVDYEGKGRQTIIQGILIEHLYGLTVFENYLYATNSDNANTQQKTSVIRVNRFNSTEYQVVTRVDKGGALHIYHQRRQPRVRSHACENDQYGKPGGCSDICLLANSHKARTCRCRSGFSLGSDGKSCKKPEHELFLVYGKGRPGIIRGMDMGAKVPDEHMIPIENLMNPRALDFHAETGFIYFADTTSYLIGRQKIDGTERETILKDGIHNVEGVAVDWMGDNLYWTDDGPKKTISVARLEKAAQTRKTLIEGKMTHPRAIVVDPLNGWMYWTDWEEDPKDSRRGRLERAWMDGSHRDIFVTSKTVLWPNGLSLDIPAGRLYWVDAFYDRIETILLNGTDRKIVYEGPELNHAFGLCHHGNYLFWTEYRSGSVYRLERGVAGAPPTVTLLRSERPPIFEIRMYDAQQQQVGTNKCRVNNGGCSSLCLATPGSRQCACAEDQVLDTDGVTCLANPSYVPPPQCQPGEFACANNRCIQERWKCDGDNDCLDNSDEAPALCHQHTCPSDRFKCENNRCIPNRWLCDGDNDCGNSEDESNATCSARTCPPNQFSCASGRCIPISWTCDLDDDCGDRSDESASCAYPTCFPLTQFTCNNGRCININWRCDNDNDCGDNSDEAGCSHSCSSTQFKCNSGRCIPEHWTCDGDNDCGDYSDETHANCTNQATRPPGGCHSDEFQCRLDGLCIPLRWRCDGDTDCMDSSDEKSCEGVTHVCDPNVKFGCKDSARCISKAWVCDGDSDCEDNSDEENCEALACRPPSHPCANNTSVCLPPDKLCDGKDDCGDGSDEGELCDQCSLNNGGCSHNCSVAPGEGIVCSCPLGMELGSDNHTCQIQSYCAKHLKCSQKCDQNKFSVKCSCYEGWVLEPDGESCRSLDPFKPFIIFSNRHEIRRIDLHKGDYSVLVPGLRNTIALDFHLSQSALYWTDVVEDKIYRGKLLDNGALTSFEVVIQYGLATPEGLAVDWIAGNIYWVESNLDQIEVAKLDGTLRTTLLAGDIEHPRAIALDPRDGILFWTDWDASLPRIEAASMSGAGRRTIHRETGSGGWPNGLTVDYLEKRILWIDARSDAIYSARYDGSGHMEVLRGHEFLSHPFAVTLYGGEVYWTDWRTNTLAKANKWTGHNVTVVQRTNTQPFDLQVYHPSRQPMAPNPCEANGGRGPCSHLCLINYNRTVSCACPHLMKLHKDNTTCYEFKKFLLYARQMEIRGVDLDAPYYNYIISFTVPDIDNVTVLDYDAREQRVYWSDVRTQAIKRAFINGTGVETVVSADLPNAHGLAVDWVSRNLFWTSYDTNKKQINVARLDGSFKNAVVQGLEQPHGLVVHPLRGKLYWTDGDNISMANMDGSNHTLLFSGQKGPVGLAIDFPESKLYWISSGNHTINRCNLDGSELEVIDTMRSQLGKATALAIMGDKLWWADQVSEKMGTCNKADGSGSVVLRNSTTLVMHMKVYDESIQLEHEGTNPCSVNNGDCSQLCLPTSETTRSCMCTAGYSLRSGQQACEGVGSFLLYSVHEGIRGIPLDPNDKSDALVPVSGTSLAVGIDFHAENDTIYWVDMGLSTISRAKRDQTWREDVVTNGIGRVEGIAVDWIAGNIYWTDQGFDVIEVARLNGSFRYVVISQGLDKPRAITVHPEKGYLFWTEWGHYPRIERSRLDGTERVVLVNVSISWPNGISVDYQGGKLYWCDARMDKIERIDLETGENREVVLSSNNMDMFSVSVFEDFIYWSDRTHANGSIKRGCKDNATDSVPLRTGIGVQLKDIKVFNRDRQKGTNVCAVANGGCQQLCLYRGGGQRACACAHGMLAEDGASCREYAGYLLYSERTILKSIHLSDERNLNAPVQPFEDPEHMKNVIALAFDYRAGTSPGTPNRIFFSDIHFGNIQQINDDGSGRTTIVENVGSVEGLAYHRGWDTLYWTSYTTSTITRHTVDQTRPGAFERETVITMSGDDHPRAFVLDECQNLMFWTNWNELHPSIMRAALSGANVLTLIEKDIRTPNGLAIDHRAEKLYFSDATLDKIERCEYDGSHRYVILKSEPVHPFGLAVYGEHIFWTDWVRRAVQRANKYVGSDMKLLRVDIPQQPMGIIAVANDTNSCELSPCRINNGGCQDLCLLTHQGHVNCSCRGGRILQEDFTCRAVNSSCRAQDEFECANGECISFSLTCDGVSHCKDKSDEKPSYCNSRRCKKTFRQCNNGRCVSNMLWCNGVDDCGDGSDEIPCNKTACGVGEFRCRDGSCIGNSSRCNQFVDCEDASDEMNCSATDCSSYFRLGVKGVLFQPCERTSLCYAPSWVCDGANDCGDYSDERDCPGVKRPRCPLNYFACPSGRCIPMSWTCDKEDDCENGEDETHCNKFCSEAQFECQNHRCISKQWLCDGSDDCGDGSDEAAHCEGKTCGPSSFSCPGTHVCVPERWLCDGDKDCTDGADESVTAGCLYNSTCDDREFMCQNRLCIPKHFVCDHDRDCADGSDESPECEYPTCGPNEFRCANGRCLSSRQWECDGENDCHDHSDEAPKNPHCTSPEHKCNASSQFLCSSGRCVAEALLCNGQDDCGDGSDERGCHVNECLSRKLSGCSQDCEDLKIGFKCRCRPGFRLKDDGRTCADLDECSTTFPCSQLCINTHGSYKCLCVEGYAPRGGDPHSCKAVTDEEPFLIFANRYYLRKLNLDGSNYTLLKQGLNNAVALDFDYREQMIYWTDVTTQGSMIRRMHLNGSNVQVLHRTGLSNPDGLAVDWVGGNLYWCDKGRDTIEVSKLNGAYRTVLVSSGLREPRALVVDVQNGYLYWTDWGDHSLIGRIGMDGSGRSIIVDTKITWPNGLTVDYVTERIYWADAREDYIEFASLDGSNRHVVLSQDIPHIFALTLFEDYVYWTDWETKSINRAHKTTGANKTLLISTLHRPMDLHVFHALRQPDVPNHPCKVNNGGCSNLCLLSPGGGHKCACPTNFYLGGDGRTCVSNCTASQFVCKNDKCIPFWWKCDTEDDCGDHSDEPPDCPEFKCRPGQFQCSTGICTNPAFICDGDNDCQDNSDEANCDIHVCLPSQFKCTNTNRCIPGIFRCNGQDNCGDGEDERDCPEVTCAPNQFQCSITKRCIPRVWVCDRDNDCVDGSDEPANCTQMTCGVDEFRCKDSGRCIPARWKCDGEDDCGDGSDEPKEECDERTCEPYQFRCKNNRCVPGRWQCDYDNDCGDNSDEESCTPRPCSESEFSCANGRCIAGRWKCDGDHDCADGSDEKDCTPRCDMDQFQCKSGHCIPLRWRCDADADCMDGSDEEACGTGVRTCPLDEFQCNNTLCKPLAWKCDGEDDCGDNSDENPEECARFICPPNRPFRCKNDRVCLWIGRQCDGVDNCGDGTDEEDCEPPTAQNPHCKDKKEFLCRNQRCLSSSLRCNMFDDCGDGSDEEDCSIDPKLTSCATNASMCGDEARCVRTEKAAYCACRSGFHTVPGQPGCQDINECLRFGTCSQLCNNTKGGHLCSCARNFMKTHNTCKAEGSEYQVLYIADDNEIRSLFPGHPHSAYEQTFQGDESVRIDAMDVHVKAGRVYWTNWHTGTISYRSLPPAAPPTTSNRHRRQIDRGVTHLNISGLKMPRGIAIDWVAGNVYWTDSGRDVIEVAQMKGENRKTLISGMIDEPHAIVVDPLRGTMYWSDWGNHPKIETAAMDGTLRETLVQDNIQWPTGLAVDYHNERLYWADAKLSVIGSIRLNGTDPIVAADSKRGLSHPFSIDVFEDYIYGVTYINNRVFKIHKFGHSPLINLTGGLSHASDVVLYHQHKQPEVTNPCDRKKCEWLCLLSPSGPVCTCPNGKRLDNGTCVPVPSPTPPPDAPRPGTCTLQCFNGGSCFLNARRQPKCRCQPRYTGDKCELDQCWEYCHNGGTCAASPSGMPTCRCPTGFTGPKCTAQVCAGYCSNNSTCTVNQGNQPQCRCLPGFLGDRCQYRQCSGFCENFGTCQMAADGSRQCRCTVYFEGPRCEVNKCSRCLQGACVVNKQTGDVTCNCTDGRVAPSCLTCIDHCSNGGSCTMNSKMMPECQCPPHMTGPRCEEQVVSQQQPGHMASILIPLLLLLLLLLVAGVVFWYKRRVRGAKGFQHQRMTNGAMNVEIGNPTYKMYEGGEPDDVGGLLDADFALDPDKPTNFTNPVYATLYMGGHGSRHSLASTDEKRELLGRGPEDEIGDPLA

LRP-1 cluster II = molecular target: T2, LRP-1 cluster II (Homo sapiens, UniProt Q07954); experiment: Surface plasmon resonance binding of Aβ peptides to immobilized LRP-1 cluster II; settings: RAP 500 nM
T2 construct: cluster II (i.e., Arg786 to Leu1165 as numbered in Herz et al., 1988); made in house; host or cells: stably transfected baby hamster kidney (BHK) cells
T2 sequence (Q07954 786-1165): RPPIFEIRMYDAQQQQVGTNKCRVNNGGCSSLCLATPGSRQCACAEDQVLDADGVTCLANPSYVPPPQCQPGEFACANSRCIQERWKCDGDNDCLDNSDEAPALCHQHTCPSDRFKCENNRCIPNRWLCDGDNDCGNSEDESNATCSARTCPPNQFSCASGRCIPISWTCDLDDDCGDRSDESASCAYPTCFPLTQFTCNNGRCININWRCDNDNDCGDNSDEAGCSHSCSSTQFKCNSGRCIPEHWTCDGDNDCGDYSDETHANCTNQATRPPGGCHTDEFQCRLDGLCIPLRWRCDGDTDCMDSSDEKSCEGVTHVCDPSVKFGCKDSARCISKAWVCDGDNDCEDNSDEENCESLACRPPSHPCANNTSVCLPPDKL
Method: (§1) RAP was used at 500 nM. Ligand solution was replaced with buffer to initiate dissociation. […] Apparent affinity constants Kd(app) were inferred from the ratio koff(app)/kon(app). Data are based on three to five measurements using six to nine different concentrations for each measurement. Data are presented as the mean±SEM. Analysis was performed using BIACORE X biosensor system (Uppsala, Sweden) and BIA evaluation 3.0 software (Biocore, Sweden).

LRP-1 cluster IV = molecular target: T3, LRP-1 cluster IV (Homo sapiens, UniProt Q07954); experiment: Surface plasmon resonance binding of Aβ peptides to immobilized LRP-1 cluster IV; settings: RAP 500 nM
T3 construct: cluster IV (i.e., His3313 to Leu3759 as numbered in Herz et al., 1988); made in house; host or cells: stably transfected baby hamster kidney (BHK) cells
T3 sequence (Q07954 3313-3759): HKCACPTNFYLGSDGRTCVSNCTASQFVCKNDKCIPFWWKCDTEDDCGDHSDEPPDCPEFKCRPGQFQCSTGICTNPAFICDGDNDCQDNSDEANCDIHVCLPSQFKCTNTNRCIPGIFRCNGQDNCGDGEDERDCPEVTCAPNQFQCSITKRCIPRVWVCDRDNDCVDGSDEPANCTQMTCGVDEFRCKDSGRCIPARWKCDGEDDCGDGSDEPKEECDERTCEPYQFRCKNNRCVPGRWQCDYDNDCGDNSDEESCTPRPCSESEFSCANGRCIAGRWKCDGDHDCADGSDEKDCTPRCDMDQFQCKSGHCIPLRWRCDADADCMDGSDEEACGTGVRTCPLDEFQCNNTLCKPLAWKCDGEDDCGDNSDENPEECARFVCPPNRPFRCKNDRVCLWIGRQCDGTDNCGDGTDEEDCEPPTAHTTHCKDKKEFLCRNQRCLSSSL
Method: as §1

[2] = molecular target: T4, LRP-1 at the blood-brain barrier (Mus musculus, UniProt Q91ZX7); experiment: Brain clearance studies: efflux of 125I-Aβ from brain ISF across the blood-brain barrier; format: in vivo; settings: RAP 1 μM, αLRP-1 60 μg/ml, NI IgG 60 μg/ml, 30 min
T4 construct: from tissue; host or cells: living mouse brain (C57BL/6, RAP null and littermate controls), microinjection into brain ISF
T4 sequence (Q91ZX7 20-4545): as the sequence (Q91ZX7 20-4545) above

lower affinity (Ki) for LRP-mediated clearance on brain capillaries than Aβ1-40 [1] [fold] | Binding of Aβ peptides to LRP-1 cluster II in the presence of RAP (LRP-1 cluster II) | Binding of Aβ peptides to LRP-1 cluster IV in the presence of RAP (LRP-1 cluster IV) | effect on 125I-Aβ1-40 uptake before (total) and after mild acid wash ([1]; RAP 500 nM, 37° C.) | effect on Aβ elimination from brain [2] | Substance | effect on Aβ1-40 brain capillary uptake ([1]; Aβ1-40 at 120 nM, RAP 1 μM, αLRP-1 60 μg/ml, NI IgG 60 μg/ml)
6 | – | – | – | – | Dutch Aβ1-40: Dutch (E22Q) mutant Aβ1-40 peptide | –
18 | – | – | – | – | Dutch Aβ1-42: Dutch (E22Q) mutant Aβ1-42 peptide | –
– | abolished | abolished | blocked | almost completely abolished | RAP: human recombinant receptor-associated protein, an LRP-1 antagonist | completely inhibited; also recorded: abolished
